Here are results for 41 sequences from the nanobody polyreactivity screen of Harvey et al. (2022).

A short description of the series: yeast display, Sf9 membrane polyspecificity reagent, FACS + sequencing; frameworks hold sequencing errors. The method in brief: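 Synthetic nanobody libraries on Saccharomyces cerevisiae BJ5465 were galactose-induced for 36–48 hours, stained 1 hour at 4 °C with 10% biotinylated, detergent-solubilized Sf9 membrane reagent and enriched on streptavidin microbeads. FACS then separated cells into low and high (top ~1%) gates by anti-HA (expression) and streptavidin (reagent binding) fluorescence. Genes were colony-PCR amplified, MiSeq 2 × 250 sequenced and CDR-length filtered. A clone's polyreactivity label is that of its gate of origin.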
On to “QDQLVESGGGLVQAGGSLRLSCAASGSTFRRYTMGWYRQAPGKERELVAVITKSGGSTYYADSVKGRFTISRDNAKNTVYLQMNRLKPEDTAVYYCAAGVAWRFYSWLGHFNGFDYWGQGTQVTVSS”, for which the “polyreactivity (PSR sort gate)” value was “high polyreactivity”.
The entry for “QVQLVESGGGLVQAGGSLRLSCAASGSIFRYYAMGWYIQAPGKERELVAVITRGGSTYYADSVKGRFTISRDNAKNTVYLQMNSLKPEDTAVYYCAADYWPAGLDRGYWGQGTQVTVSS” is “low polyreactivity”.
The entry for “QVQLVESGGGLVQAGGSLRLSCAASGSNFLPNAMGWYRQAPGKERELVAAISWSDDSTYYADSVKGRFTISRDNAKNTVDLQMNSLNPEDTAVYYCAADVGLWYDYWGQGTQVTVSS” is “high polyreactivity”; for “QVQLVESRGGLVHAGGSLRLSCAASGSIFQSYYMGWYRQAPGKERELVAAISWSGSTTYYADSVKGRFTISRDNAKNTVYLQMNSLKPEDTAVYYCAVDSNPPDWWAVIYGYWGQGTQVTVSS” it is “low polyreactivity”.
Next, “QVQLVESGGGLVQAGGSLRLSCAASGRTFGTNAMGWYRQAPGKERELVAAISWRGTSTYYADSVKGRFTISRDNAKNTVYLQMNSLKPEDTAVYYCAADFSYTSYATRYQGDYWGQGTQVTVSS”: “low polyreactivity”.
Consider “QVQLVESGGGLVQAGGSLRLSCAASGSIVYVYAMGWYRQAPGKEREVVAAINTSGGSTYADSVKGRFTISRDNAKNTVYLQMNSLKPEDTAVYYCAADGYYEYTWGEYDSWGQGTQVTVSS”, for which the “polyreactivity (PSR sort gate)” value was “low polyreactivity”.
As for “QDQLVESRGVIVQAGGSLRLSCAASGRIFSVNAMGWYRQAPGKERELVAAITGSGTITYYADSVKGRFTISRDNAKNIVYLQMNSLKQEDTAVYYCAARPVLRYYAGYYYWGQGTQVTVSS”, the “polyreactivity (PSR sort gate)” value is “high polyreactivity”.
In the case of “QVHLVESGGGLVQAGGSLRLSCAASGRTFGRKAMGWYRQAPGKERELVASITKRGGSTYYADSVKGRFTISRDNAKNTVYLQMNSLKPVDTAVYYCAVEAYDYWGQGTQVTVSS”, the “polyreactivity (PSR sort gate)” value is listed as “high polyreactivity”.
The entry for “QVQLVESGRGLVQAGGSLRLSCAASGSTLGVNAMGWYRQAPGKERELVAAISRSGTSTYYADSVKGRFTISRDNAKNTVYLQMNSLKPEDTAVYYCAAQYVIFGSRSRQFIEYEYWGQGTQVTVSS” is “high polyreactivity”; for “QVQLVESGGGLVQAGGSLRLSCAASGSIFVIYTMGWYRQAPGKERELVAVITWSTGNTYYADSVKGRFTISRDNAKNTVYLQMNSLKPEDTAVYYCAARTTSRWRSCAYYYWGQGTQVTVSS” it is “high polyreactivity”.
The entry for “QVQLVESGGGLVQAGGSLRLSCAASGCTFSIYAMGWYRQAPGKERELVAAFTGTVGSTYYADSVKVRFTISRDNAKNTVYLQMKSLKPEDTAVYYCNVDWFWNWRGYYWGQGTQVTVSS” is “low polyreactivity”; for “QVQLVESGGGLVQAGGSLRLSCAASGRIFYYYAMGWYREAPGKEREFVARNRSSGGSTYADSVKGRFTISRDNAKNTVYLQMNSLKPEDTAVYYCARDGYTAVEYDYWGQGTQVTVSS” it is “low polyreactivity”.
Next, “QVQLVESGGGLVQAGGSLRLSCAASGSTFSVYAMGWYRQAPGKERELVAAISSGGTTNYADSVKGRFTISRDNAKNTVYLQMNSLKPEDTAVYYCAAEYDHYPYDYYWGQGTQVTVSS”: “low polyreactivity”; “QVQLVESGGGLVQAGGSLRLSCAASGSTFYRNAMGWYRQAPGKERELVAVISISDGSTYADSVKGRFTISRDNAKNTVYLQMNSLKPEDTAVYYCAKVLNPLDYYDFDYWGQGTQVTVSS”: “low polyreactivity”.
In the case of “QLQLVESGGGLVQAGGSLRLSCAASGRIFTGNAMGWYRQAPGKERELVAAISYSGGSTYYADSVKGRFTISRDNAKNTVYLQMNSLKPEDTAVYYCAAAGRYLRYGYWGQGTQVTVSS”, the “polyreactivity (PSR sort gate)” value is “high polyreactivity”.
As for “QVQLVESGGGLVQAGGSLRLSCAASGSIFRQYAMGWYRQAPGKERELVATISRSGGSTYYADSVKGRFTISRDNAKNTVYLQMNSLKPEDTAVYYCAASRYKKSYREWWVGSWGQGTQVTVSS”, the “polyreactivity (PSR sort gate)” value is reported as “high polyreactivity”.
Next, “QVQLVESGGGLVQAGGSLRLSCAASGRIFYPYAMGWYRQAPGKERELVGYSRGGSTNYADSVKGRFTISRDNAKNTVYLQMNSLKPEDTAVYYCARDVHRSGYLIFDYWGQGTQVTVSS”: “low polyreactivity”.
Next, “QVQLVESGGGLVQAGGSLRLSCAASGRIFNQYGMGWYRQAPGKERELVASITLTDGSTYYADSVKGRFTISRDNAKNTVYLQMNSLKPEDTAVYYCAARISGGSTFRYQRMYYWGQGTQVTVSS”: “low polyreactivity”; “QVQLVESGGGLVQAGGSLRLSCAASGSIFSGNAMGWYRQAAGKERELVAVITYRSSRTYYADSVKGRFTISRDNAKNTVYLQMNSLKPEDTAVYYCAAYSNRVVKGYGYWGQGTQVTVSS”: “high polyreactivity”; “QVQLVESGGGLVQAGGSLRLSCAASGFIFAVNAMGWYRPAPGKERELVAAISRSGGTTYYADSVKGRFTISRDNAKNTVYLQMNSLKPEDTAVYYCARSSGLRSWRSSDYWGQGTQVTVSS”: “high polyreactivity”.
As for “QVQLVESGGGLVQAGGSLRLSCAASGRILGKNALGWYRQAPGKEREWVADISGRGDRTHYADSVKGRFTISRDNAKNTVYLQMNSLNAEYTAVYYCAKYHHPPGKGQSVSLGYDFWGQGTQVTVSS”, the “polyreactivity (PSR sort gate)” value is “low polyreactivity”.
The entry for “QVQLVESGGGLVQAGGSLRLSCAASGRIFDGNTMGWYIPAPGKERELVAAISGGGSTDYADSVKGRFTISRDNAKNTVYLQMNSLKPEDTAVYYCAATTGPVPLKGDYWGQGTQVTVSS” is “low polyreactivity”; for “QVQLVESGGGLFQAGGSLRLSCAASGRIFPYKVMGWYRQAPGKERELVAAISSGGTTDYADSVKGRFTISRDNAKNTVYLQMNSLKPEDTAVYYCASTYVYWTWGYDYWGQGTQVTVSS” it is “low polyreactivity”.
In the case of “QVQLVESGGGLVQAGGSLRLSCAASGLTLSYNAMGWYRQAPGKERELVAAIRSGGSTNYADSVKGRFTISRDNAKNTVYLQMNSLKPEDTAVYYCAARFRYLPYRYGRYQSGYEYWGQGTQVTVSS”, the “polyreactivity (PSR sort gate)” value is “high polyreactivity”.
Next, “QVQLVESGGGLVQAGGSLRLSCAASGRTFDRNTMGWYRQAPGKERELVAAISSSGGSTYYADSVKGRFTISRDNAKNTVYLQMNSLKPEDTAVYYCAVLSRQYFRYGYDYWGQGTQVTVSS”: “high polyreactivity”; “QVQLLESGGRLVQAGRSLRLSCAASGRTFGPYAMGWYRQAPGKEREFVAAISSRGGRTYYADSVKGRFTISRDNAKNTVYLQLNSLKPEDTAVYYCAAEYNYSNKYLYLFLQMDYWGQGSQVTVSS”: “low polyreactivity”; “QVQLVESGGGLVQAGGSLRLSCAASGSIYGTNAMGWYRQAPGKERELVSAIDGGSTTYYADSVKGRFTISRDNAKNTVYLQMNSLKPEDTAVYYCAADGTRYLNYEGYAGYEYWGQGTQVTVSS”: “low polyreactivity”.
Next, “QVQLVESGGGLVQAGGSLRLSCAASGLTFYYYAMGWYRQAPGKERELVATISSGGNTNYADSVKGRFTISRDNAMNTVYLQMNSLKPEDTAVYYCNADRWFHYYRYNYWGQGTQVTVSS”: “high polyreactivity”.
In the case of “QVQLVESGGGLVQAGGSLRLSCAAYGRTFASYALGWYRQAPGKEREFVAVISVNGGNTYYADSVKGRFTISRDNAKNTVYLQMNSLKPEDTAVYYCARFDGWYQGYYPLYEFDYWGQGTQVTVSS”, the “polyreactivity (PSR sort gate)” value is listed as “high polyreactivity”.
Next, “QVHLVESGGGLVQAGGSLRLSCDASGSTFLSNAMGWYRQAPGKERELVAAITTSGTSTFYADSVKGRFTISRDTAKNTVYLQMNSLKPEDTAVYCAKDYLPYLHFVAPSTGDYDYWGQGTQVTVSS”: “low polyreactivity”; “QVQLVESGGGLVQAGGSLRLSCAASGRTFYTYAMGWYRQAPGKEREFVAAIDWSGGTTYYADSVKGRFTISRDNAKNTVFLQINSLKPEDTAVYYCAADDSFYRQYYYRAHGDYWGQGYQVTVSS”: “low polyreactivity”; “QVQLVESGGGLVQAGGSLRLSCAASGSIFDDYAMGWYRPAPGKEREVVAAISSGGSTYYADSVKGRFTISRDNAKNTVYLQMNSLKPEDTAVYYCNALYPQVGFGYWGQGTQVTVSS”: “low polyreactivity”.
The entry for “QVQLVESGGGLVQAGGSLRLSCAASGSTFFYYAMGWYRKAPGKERDFVAAISKSGGRTYYADTVKGRFTISRDNAKNTVYLQMNSLKPEDTAVYYCAAYYEYRRDYWGQCTQVTVSS” is “high polyreactivity”; for “QVQLEESGGGLVQAGGSLRLSCAASGRIIYSNGMGWYRQAPGKERELVAAISSGGSTYYADSVKGRFTISRDNAKNTVYLQMNSLKPEDTAVYYCAADIDYERDRYDYWGQGTQVTVSS” it is “low polyreactivity”; for “QVQLVESGGGLVQAGGSLRLSCAASGRIFSYYTLGWYRQAPGKERELVAAIRISSGGTYYADSVKGRFTISRDNAKNTVYLQMNSLKPEDTAVYYCAARYYGFPSKYDYWGQGTQVTVSS” it is “high polyreactivity”.
Next, “QVQLEESGGGLVQAGGSLRLSCAASGRIFWVNVMGWYRQAPGKERELVAAITRGASTYADSVKGRFTISRDNAKNTVYLQLNSLKPEDTAVYYCAVGISDFQYYDYVYWGQGTHVTVSS”: “high polyreactivity”; “QVQLVESGGGLFQAGGSLRLSCAASGSIFRVYGMGWYRQAPGKERDLVAAITWSGGSTYYADSVKGRFTISRDNAKNTLYVQINSLKPDATAVYYCAARARPRYYRPPYDYWGQGTQVTVSS”: “high polyreactivity”; “QVQLVESGGGLVQAGGSLRLSCAASGRTFDPNAMGWYRQAPGKERELVAAIRWTGTSTYYADSVKGRFTISRDNAKNTVYLQMNSLKPEDTAVDYCNARGSYRLRYDYWGQGTQVTVSS”: “high polyreactivity”.
As to “QVQLVESGGGLVQAGCSLRLSCAASGFIFVRNAMGWYRQAPGKERELVAAISSSGGSTNYADSVKGRFTISRDNAKNTVYLQMNSLKPEDTAVYYCNAQRYYDYWGQGTQVTVSS”, the “polyreactivity (PSR sort gate)” value was “high polyreactivity”.
With “QVQLVESGGGLVQAGGSLRLSCAASGRIIRYYVMGWYRQAPGKEREFVASISGRGASTYYADSVKGRFTISRDNAKNTVYLQMNSLKPEDTAVYYWNKESYFDTYRRYDSWGQGTQVTVSS”, the “polyreactivity (PSR sort gate)” value was “low polyreactivity”.
Next, “QVQLVESGGGLVQAGGSLRLSCAASGSTFYTNTMGWYRQAPGKERELVADINGSGGSTYYADSVKGRFTISRDNAKNTVYLQMNSLKPEDTAVYYCAAGSWQVAIRYDYWGQGTQVTVSS”: “low polyreactivity”.
